In assay [1] the target is HPeV3-2A (2A^H/NC protein of human parechovirus 3) (Human parechovirus 3 (HPeV3)). The experiment in a line: SEC-MALS.
The target is the same in assay [2]. The experiment in a line: crystal structure.
Assay [3] shares this target. The experiment in a line: SEC-SAXS.
Assay [4] addresses LV1-2A2 (2A2 protein of Ljungan virus 1, isolate 87-012) (Ljungan virus 1 (isolate 87-012)). Nature of the assay: crystal structure.
Assay [5] addresses LV4-2A2^1-122 (C-terminally truncated 2A2 protein of Ljungan virus 4) (Ljungan virus 4 (strain 64-7855)). The experiment in a line: SEC-MALS.
The target is the same in assay [6]. Nature of the assay: crystal structure.
The target in assay [7] is SEBV1-2A2 (2A2 protein of Sebokele virus 1) (Sebokele virus 1 (SEBV1)). Nature of the assay: SEC-MALS. On the technique in general: In gel filtration, larger molecules generally elute earlier.
The target is the same in assay [8]. The experiment in a line: crystal structure.
For assay [9] the target is unchanged. Nature of the assay: SEC-SAXS.
Assay [10] concerns the target LV4-2A2 (full-length 2A2 protein of Ljungan virus 4, strain 64-7855) (Ljungan virus 4 (strain 64-7855)). Nature of the assay: SEC-MALS.
Assay [11] has the same target. Nature of the assay: SEC-SAXS.

Usually stoichiometry N stands for a count of units in the complex or per binding partner. Consider “HPeV3-2A (2A^H/NC protein of human parechovirus 3) (natural protein)”, for which the stoichiometry N was 2 in assay [1], 4 in assay [2] and 2 in assay [3].
For “LV1-2A2 (2A2 protein of Ljungan virus 1, isolate 87-012) (natural protein)”, the stoichiometry N in assay [4] stood at 2.
On to “LV4-2A2^1-122 (C-terminally truncated 2A2 protein of Ljungan virus 4) (domain or fragment)”, for which the stoichiometry N in [5] and in [6] was 2 throughout.
Regarding “SEBV1-2A2 (2A2 protein of Sebokele virus 1) (natural protein)”, the stoichiometry N in [7], in assay [8] and in assay [9] was 2 throughout.
For “LV4-2A2 (full-length 2A2 protein of Ljungan virus 4, strain 64-7855) (natural protein)”, the stoichiometry N in assay [10] and in assay [11] was 2 each time.

The values above are taken from publication doi:10.1101/2024.04.06.588386.
